Measured values reported in PMC10786891, “Massively parallel profiling of RNA-targeting CRISPR-Cas13d”.
Residue numbers refer to the chain shown, from its start. Names may count otherwise.

B1: target 1 C7G,U8A (mixed)
RNA 1: CACCCGUGCAAAAAUGCAGGGGUCUAAAACUGAGCGGAUAACCUCUCUAUGG
RNA 2: GGGAAUGGAUCCACAUCUACGAAUUCGUACCAUAGAGAGGUUAAGCGCUCACCGAGAUCGGAAGAGCACACGU
B2: target 1 C7G,A14C (mixed)
RNA 1: B1 RNA 1
RNA 2: B1 RNA 2 with A38C, A44U
B3: target 1 insC 3' of 11,insG 3' of 2 (mixed)
RNA 1: B1 RNA 1
RNA 2: GGGAAUGGAUCCACAUCUACGAAUUCGUACCAUAGAGAGGUCUAUCCGCUCGACCGAGAUCGGAAGAGCACACGU
B4: target 1 insC 3' of 10,insG 3' of 10 (mixed)
RNA 1: B1 RNA 1
RNA 2: GGGAAUGGAUCCACAUCUACGAAUUCGUACCAUAGAGAGGUUCGAUCCGCUCACCGAGAUCGGAAGAGCACACGU
B5: target 1 insA 3' of 3,insC 3' of 3 (mixed)
RNA 1: B1 RNA 1
RNA 2: B4 RNA 2 with C43A, G44U, A45C, U46C, C47G, G49U, C50A, U51C
B6: target 1 insG 3' of 22,insC 3' of 5 (mixed)
RNA 1: B1 RNA 1
RNA 2: GGGAAUGGAUCCACAUCUACGAAUUCGUACGCAUAGAGAGGUUAUCCGCCUCACCGAGAUCGGAAGAGCACACGU
B7: target 1 insC 3' of 13,insG 3' of 9 (mixed)
RNA 1: B1 RNA 1
RNA 2: B4 RNA 2 with G40C, U41G, C43U, G44A, A45G
B8: target 1 del5,del7 (mixed)
RNA 1: B1 RNA 1
RNA 2: GGGAAUGGAUCCACAUCUACGAAUUCGUACCAUAGAGAGGUUAUCCUCACCGAGAUCGGAAGAGCACACGU
B9: target 1 insU 3' of 21,insA 3' of 7 (mixed)
RNA 1: B1 RNA 1
RNA 2: B6 RNA 2 with G31C, C32U, C47A, G48C, C49G
B10: target 1 insA 3' of 7,insA 3' of 7 (mixed)
RNA 1: B1 RNA 1
RNA 2: B4 RNA 2 with C43A, G44U, A45C, U46A, C47A
B11: target 1 insU 3' of 15,insC 3' of 14 (mixed)
RNA 1: B1 RNA 1
RNA 2: B4 RNA 2 with A38U, G39A, G40C, U41G, U42G, C43U, G44U
B12: target 1 U3G,A18U (mixed)
RNA 1: B1 RNA 1
RNA 2: B1 RNA 2 with A34U, A44U, G45C, U49G
B13: target 1 insA 3' of 22,insU 3' of 18 (mixed)
RNA 1: B1 RNA 1
RNA 2: GGGAAUGGAUCCACAUCUACGAAUUCGUACACAUAUGAGAGGUUAUCCGCUCACCGAGAUCGGAAGAGCACACGU
B14: target 1 C6A,U8C (mixed)
RNA 1: B1 RNA 1
RNA 2: B1 RNA 2 with A44C, G45C, C46A
B15: target 1 insC 3' of 15,insU 3' of 13 (mixed)
RNA 1: B1 RNA 1
RNA 2: B4 RNA 2 with A38C, G39A, U42G, C43U, G44U

Molecular target: T1, EsCas13d, nuclease-dead (Eubacterium siraeum, UniProt B0MS50, R295A;H300A;R849A;H854A)
T1 sequence: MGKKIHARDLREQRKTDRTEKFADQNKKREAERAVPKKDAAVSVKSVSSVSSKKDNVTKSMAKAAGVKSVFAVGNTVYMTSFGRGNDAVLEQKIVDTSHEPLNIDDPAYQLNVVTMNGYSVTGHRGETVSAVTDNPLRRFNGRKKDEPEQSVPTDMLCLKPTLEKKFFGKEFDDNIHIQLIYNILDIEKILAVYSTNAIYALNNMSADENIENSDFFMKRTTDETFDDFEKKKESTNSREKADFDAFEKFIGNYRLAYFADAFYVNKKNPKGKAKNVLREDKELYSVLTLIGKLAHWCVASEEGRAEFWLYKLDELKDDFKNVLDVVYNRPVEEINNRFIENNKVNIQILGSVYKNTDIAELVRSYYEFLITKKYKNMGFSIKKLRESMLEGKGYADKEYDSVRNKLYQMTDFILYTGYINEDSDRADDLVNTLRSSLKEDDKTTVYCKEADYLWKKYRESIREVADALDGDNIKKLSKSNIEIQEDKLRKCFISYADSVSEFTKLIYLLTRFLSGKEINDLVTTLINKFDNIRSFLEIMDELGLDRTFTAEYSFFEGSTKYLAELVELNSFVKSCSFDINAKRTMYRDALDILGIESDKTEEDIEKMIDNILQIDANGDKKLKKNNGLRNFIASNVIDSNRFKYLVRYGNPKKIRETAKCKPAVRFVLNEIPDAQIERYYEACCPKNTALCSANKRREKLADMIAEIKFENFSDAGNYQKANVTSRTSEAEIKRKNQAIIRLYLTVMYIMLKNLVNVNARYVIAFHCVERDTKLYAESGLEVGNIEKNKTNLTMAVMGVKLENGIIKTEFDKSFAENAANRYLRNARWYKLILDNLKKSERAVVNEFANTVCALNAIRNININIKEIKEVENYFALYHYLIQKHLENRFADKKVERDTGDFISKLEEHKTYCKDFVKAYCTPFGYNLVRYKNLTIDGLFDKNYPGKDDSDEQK
Assay: crRNA (strand 1, pre-loaded); Mg2+; 40 mM Tris-HCl pH 7.5, 150 mM NaCl, 6 mM MgCl2, 1 mM DTT, 0.1% Tween-20, 0.2 mg/ml BSA; 25 C; 10 min per concentration, then washed
Conditions: tags: His6-TwinStrep-SUMO cleaved; N-terminal SNAP kept (SNAP-Surface 488); label: 3' end held by stalled T7 RNA polymerase

Binder | Kd
B1 | 7.45 ± 0.24 nM
B2 | 33.5 ± 2.9 nM
B3 | 42 ± 14 nM
B4 | 13.6 ± 0.5 nM
B5 | 62 ± 19 nM
B6 | 67 ± 23 nM
B7 | 13 ± 0.9 nM
B8 | 13.9 ± 0.7 nM
B9 | 20.3 ± 0.9 nM
B10 | 7 ± 0.5 nM
B11 | 43 ± 6 nM
B12 | 20.5 ± 1.3 nM
B13 | 47 ± 6 nM
B14 | 10.7 ± 0.6 nM
B15 | 26 ± 5 nM
